Molecular target: L′LKAAμ thiopeptide (thioleucine-Leu-Lys-Ala-Ala-7-methoxycoumarin-4-ylalanine)
Assay: stopped-flow fluorescence kinetics
Conditions: other: stopped-flow fluorescence kinetics (global fit to a three-step scheme)

B1: Papain (crude, from papaya latex) (protein)
chain: IPEYVDWRQKGAVTPVKNQGSCGSCWAFSAVVTIEGIIKIRTGNLNEYSEQELLDCDRRSYGCNGGYPWSALQLVAQYGIHYRNTYPYEGVQRYCRSREKGPYAAKTDGVRQVQPYNEGALLYSIANQPVSVVLEAAGKDFQLYRGGIFVGPCGNKVDHAVAAVGYGPNYILIKNSWGTGWGENGYIRIKRGTGNSYGVCGLYTSSFYPVKN
  KS (enzyme-substrate complex, first step of the three-step scheme): KS = k1/k–1 = 921 μM

From publication PMC3985465
